# According to patent US20050227302A1, “Induction of apoptosis via ARTS-IAP complexes” (priority 2004, published 2005):
# Where a SMILES comes first, the peptide text is derived from it. The star is where a group is joined. Cbz = O=C(OCc1ccccc1)*
# B1: AU5-H5 (other, human, UniProt O43236-1 1-478, looked up)
# chain: MDRSLGWQGNSVPEDRTEAGIKRFLEDTTDDGELSKFVKDFSGNASCHPPEAKTWASRPQVPEPRPQAPDLYDDDLEFRPPSRPQSSDNQQYFCAPAPLSPSARPRSPWGKLDPYDSSEDDKEYVGFATLPNQVHRKSVKKGFDFTLMVAGESGLGKSTLVNSLFLTDLYRDRKLLGAEERIMQTVEITKHAVDIEEKGVRLRLTIVDTPGFGDAVNNTECWKPVAEYIDQQFEQYFRDESGLNRKNIQDNRVHCCLYFISPFGHGLRPLDVEFMKALHQRVNIVPILAKADTLTPPEVDHKKRKIREEIEHFGIKIYQFPDCDSDEDEDFKLQDQALKESIPFAVIGSNTVVEARGRRVRGRLYPWGIVEVENPGHCDFVKLRTMLVRTHMQDLKDVTRETHYENYRAQCIQSMTRLVVKERNRNKLTRESGTDFPIPAVPPGTDPETEKLIREKDEELRRMQEMLHKIQKQMKENY
# notes: Expressed in transfected COS-7 cells; The construct came from Dr. Seong-Jin Kim; also called pEF1-AU5-H5; H5 septin protein; not shown: AU5 tag
# B2: AU5-ARTS ΔC (other)
# chain: MIKRFLEDTTDDGELSKFVKDFSGNASCHPPEAKTWASRPQVPEPRPQAPDLYDDDLEFRPPSRPQSSDNQQYFCAPAPLSPSARPRSPWGKLDPYDSSEDDKEYVGFATLPNQVHRKSVKKGFDFTLMVAGESGLGKSTLVNSLFLTDLYRDRKLLGAEERIMQTVEITKHAVDIEEKGVRLRLTIVDTPGFGDAVNNTECWKPV
# notes: 1-206 is 274 minus 68; also called AU5-ARTSDC; not shown: AU5 tag at the N' terminus
# B3: ARTSΔC: ARTS construct that lacks 68 amino acids at the unique ARTS C′-terminal sequence (protein)
# chain: B2 chain
# modifications: left off: small tags and cut ends
# B4: AU5-ARTSmGTP (other)
# chain: MIKRFLEDTTDDGELSKFVKDFSGNASCHPPEAKTWASRPQVPEPRPQAPDLYDDDLEFRPPSRPQSSDNQQYFCAPAPLSPSARPRSPWGKLDPYDSSEDDKEYVGFATLPNQVHRKSVKKGFDFTLMVAGESGLENPTLVNSLFLTDLYRDRKLLGAEERIMQTVEITKHAVDIEEKGVRLRLTIVDTPGFGDAVNNTECWKPVAEYIDQQFEQYFRDESGLNRKNIQDNRVHCCLYFISPFGHGYGPSLRLLAPPGAVKGTGQEHQGQGCH
# notes: not shown: AU5 tag at the N' terminus
# B5: ARTSmGTP: ARTS mutant, three amino acids (G K S with E N P) replaced at the GTP binding site (protein)
# chain: B4 chain
# modifications: left off: small tags and cut ends
# How the values were obtained:
# XIAP [1] = experiment: XIAP protein levels by Western blot in COS-7 cells; type: cell-based, African Green Monkey
# Method: (§1) Protein extracts were prepared with lysis buffer (150 mM NaCl, 50 mM Tris-HCl (pH 8), 1% NP-40, 0.5% deoxycholate acid) with protease inhibitors. Lysates containing equal amounts of total protein were pre-cleared overnight with 1 mg mouse IgG (Sigma) coupled with protein A/G-Sepharose mix (Amersham Biosciences) and the beads centrifuged. Supernatants were immuno-precipitated using 5 μl of anti-ARTS antibody for 4 h, anti-XIAP antibody, rabbit anti-myc antibody, or mouse IgG (negative control). Protein A/G Sepharose beads were added for 1 hour and washed four times with PBS. Antibodies against XIAP (as above), Myc (Santa Cruz), or anti-ARTS (NT) antibodies directed against the common N′ terminus of ARTS and H5 (ProSci Incorporated) were used for Western blot.
# (§2) Stably transfected COS-7 pE-ARTS cells were generated using the pEF1-IRES vector (Hobbs S et al, Biochem Biophys Res Commun 252: 368-372, 1998). The construct contains an EF-1 promoter followed by a multi cloning site, an EMC (Encephalomyocarditis virus) internal ribosome entry sites (IRES), and a puromycin resistance gene. AU5-tagged ARTS was inserted into the XhoI site downstream of the EF-1 promoter. The construct was stably transfected into COS-7 cells. The cells were maintained in medium containing 4 μg/ml puromycin.
# Cells were treated for 2 hours with […] of the proteasome inhibitor (MG132, Calbiochem) prior to induction of apoptotis.
# XIAP [2] = experiment: Co-immunoprecipitation of ARTS-XIAP complexes in COS-7 cells; type: cell-based, African Green Monkey
# Method: as §1
# COS-7 cells [3] = experiment: Immunofluorescence of ARTS and XIAP localization in COS-7 cells; type: cell-based, African Green Monkey; details: COS-7 cells, 50 μM etoposide for 16 hour, with BOC
# Method: Cells were fixed with 4% paraformaldehyde in PBS for 20 min at room temperature, washed with PBS, permeabilized with 0.5% Triton-X in PBS for 5 min, and incubated with primary antibodies for 2 hours at room temperature (rabbit polyclonal anti-ARTS (1:20,000; Sigma), monoclonal anti-ARTS, and/or monoclonal anti-XIAP (1:500; used in subsequent Examples). Cells were washed three times with PBS/0.1% Triton-X and incubated with FITC conjugated anti-mouse and Rhodamin^TX-conjugated anti-rabbit secondary antibodies (Jackson). Images were analyzed using a confocal laser microscope (Zeiss LSM 510). Mitochondria were visualized with MitoTracker® Red CMXRos (Molecular Probes/Invitrogen).
# For caspase inhibition, we added […] of BOC-Asp(Ome)CH2F (Enzyme Systems Products) one hour prior to addition of the apoptotic agents.
# GST-XIAP fusion protein = target: T1, GST-XIAP fusion protein (Homo sapiens (Human), UniProt P98170 1-497); experiment: GST-XIAP pull-down from lysate of transfected COS-7 cells, Western blot with anti-AU5
# T1 construct: also called pGEX-XIAP; not shown: glutathione-S-transferase (GST) of a pGEX vector
# T1 sequence (P98170 whole entry, the tested form may be a part): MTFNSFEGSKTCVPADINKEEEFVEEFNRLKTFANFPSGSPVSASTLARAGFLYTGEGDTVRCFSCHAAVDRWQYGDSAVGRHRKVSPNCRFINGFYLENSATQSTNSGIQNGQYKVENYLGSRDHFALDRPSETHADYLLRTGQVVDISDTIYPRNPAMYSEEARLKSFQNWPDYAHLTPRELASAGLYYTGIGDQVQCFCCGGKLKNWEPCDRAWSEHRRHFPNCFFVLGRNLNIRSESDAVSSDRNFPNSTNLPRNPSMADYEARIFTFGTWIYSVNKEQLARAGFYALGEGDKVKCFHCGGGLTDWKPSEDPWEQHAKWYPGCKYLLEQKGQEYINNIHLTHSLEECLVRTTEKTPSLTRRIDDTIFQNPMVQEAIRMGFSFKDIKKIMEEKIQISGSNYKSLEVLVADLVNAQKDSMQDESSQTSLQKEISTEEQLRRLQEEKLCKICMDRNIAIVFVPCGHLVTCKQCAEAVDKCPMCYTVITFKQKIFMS
# Method: FIG. 3. ARTS specifically binds XIAP in vitro. In vitro binding was tested using a GST pull-down assay. A-B. COS-7 cells were transiently transfected with myc-tagged XIAP. GST pull-down was performed using GST-ARTS and Western blot using anti-XIAP and (A) and anti myc (B). C. COS-7 cells were transiently transfected with AU5-ARTS, AU5-ARTSDC or AU5-H5. GST pull down was performed using GST-XIAP and Western blot with anti-AU5. Binding to glutathione beads alone served as a negative control.
# Cells were lysed in RIPA buffer (150 mM NaCl, 50 mM Tris-HCl (pH 8), 1% NP-40, 0.1% SDS, 0.5% deoxycholate acid containing protease inhibitors (mini Complete, Roche)). Samples were divided into two tubes; one was rotated for 4 h at 4° C. with GST-ARTS fusion protein coupled with the glutathione beads, or GST-XIAP fusion protein. The second tube was incubated with glutathione beads alone (negative control). Samples were centrifuged at 4000-RPM at 4° C. for 4 minute and washed five times in lysis buffer, then boiled in sample buffer for 5 minutes to elute bound proteins Proteins were separated on 12.5% SDS-PAGE gel followed by Western blot analysis using monoclonal anti-ARTS antibody (Sigma), monoclonal anti-XIAP antibody (BD Transduction Laboratories) or monoclonal anti-myc antibody (Clontech). […]
# [4] = target: T2, Myc epitope-tagged wild-type XIAP (Homo sapiens (Human), UniProt P98170 1-497); experiment: co-IP with agarose-anti-myc beads from co-transfected COS-7 cells, Western blot
# T2 construct: Expressed by transient transfection in COS-7 cells and used as cell lysate; The construct came from Dr. Colin S. Duckett; also called myc-tagged XIAP; mycXIAP
# T2 sequence (P98170 whole entry): as the sequence (P98170 whole entry, the tested form may be a part) above
# Method: FIG. 4. ARTS binding to XIAP is specific and related to its apoptotic function. A. In-vivo binding of ARTS to XIAP was tested using co-IP with anti-ARTS, anti-XIAP or mouse IgG as a negative control, followed by anti-XIAP Western blot. B. Lysates of COS-7 cells co-transfected with pcDNA-mycXIAP and AU5-ARTS, AU5-ARTSmGTP or H5 DC were co-immunoprecipitated using agarose-anti-myc beads, followed by Western blot analysis with rabbit anti-myc and anti-ARTS. […] COS-7 cells were transiently transfected with AU5-ARTS, AU5-ARTSmGTP, AU5-ARTSDC or AU5-PNUTL2, and percent apoptosis determined. […] P-values (Anova) were 0.03 for non-treated cells, compared to 0.000004 for 1 hr and 0.00001 for 3 hr STS treatment.
# as §1, with “Antibodies against XIAP (as above), Myc (Santa Cruz), or anti-ARTS (NT) antibodies directed against the common N′ terminus of ARTS and H5 (ProSci Incorporated) were used for Western blot.” left out
# COS-7 cells [5] = experiment: Apoptosis assays (TUNEL, anti-H2A.X) in COS-7 cells; type: cell-based, African Green Monkey; set-up: induction of apoptosis (TUNEL): dose or concentration left out as unconfirmed; details: transiently transfected COS-7 cells, staurosporine (STS) for 1 or 3 hours
# Method: Apoptotic cells were detected using the anti-H2A.X antibody (Upstate; Paull, et al., 2000) or TUNEL. For TUNEL assays, COS-7 cells were transiently transfected with AU5-ARTS, AU5-ARTSΔC, AU5-ARTSmGTP and AU5-H5. Twenty-four hours after transfection, the cells were treated with staurosporine (STS) ([…]) for 1 or 3 hours, then fixed and permeabilized. Apoptosis levels were determined using the TUNEL. In situ™ cell death detection TMR kit (Roche) according to the manufacturer's protocol. All slides were coded and experiments were performed in a blind manner.
# as §2
# XIAP [6] = target: T3, XIAP (Homo sapiens, UniProt P98170); experiment: GST pull-down assay of ARTS and XIAP; type: binding; details: lysates of COS-7 cells transfected with AU5-tagged construct; Western blot anti-AU5
# T3 construct: made in house; host or cells: bacteria (pGEX-XIAP plasmid obtained from Dr. Colin S. Duckett)
# T3 sequence (P98170 whole entry): as the sequence (P98170 whole entry, the tested form may be a part) above
# Source text: For the glutathione-S-transferase (GST)-pull down assays, ARTS was subcloned into the pGEX 4T™ (Pharmacia Biotech) construct; GST-ARTS fusion protein was generated by Polymerase Chain Reaction (PCR) using the following primers: • BamHI-5′-[…]-3′ (SEQ ID No: 4) and • EcoRI-5′ […]-3′ (SEQ ID No: 5) and cloned into BamHI and EcoRI sites in pGEX 4T. Preparation of Beads
# For in vitro binding studies, recombinant GST-ARTS or GST-XIAP fusion proteins were purified from bacteria. After sonication, 0.1% Triton X-100 and protease inhibitors (Mini-Complete™, Roche) were added to the bacterial extract followed by 10,000 rotations per minute (RPM) centrifugation. Supernatants of bacterial extracts were collected and incubated in the presence of glutathione-Sepharose 4B beads (Amersham Biosciences) for 30 minute at 4° C. The beads were washed three times.
# Cells were lysed in RIPA buffer (150 mM NaCl, 50 mM Tris-HCl (pH 8), 1% NP-40, 0.1% SDS, 0.5% deoxycholate acid containing protease inhibitors (mini Complete, Roche)). Samples were divided into two tubes; one was rotated for 4 h at 4° C. with GST-ARTS fusion protein coupled with the glutathione beads, or GST-XIAP fusion protein. The second tube was incubated with glutathione beads alone (negative control). Samples were centrifuged at 4000-RPM at 4° C. for 4 minute and washed five times in lysis buffer, then boiled in sample buffer for 5 minutes to elute bound proteins Proteins were separated on 12.5% SDS-PAGE gel followed by Western blot analysis using monoclonal anti-ARTS antibody (Sigma), monoclonal anti-XIAP antibody (BD Transduction Laboratories) or monoclonal anti-myc antibody (Clontech).
molecule,measurement,setting,value
"COC(=O)CC(NC(=O)OC(C)(C)C)C(=O)CF (centres unmarked) [BOC, BOC-Asp(Ome)CH2F, reference compound]",sensitivity of the reduction of XIAP protein to caspase inhibition,XIAP [1]; COS-7 cells treated with staurosporine with or without BOC,not sensitive
same,formation of ARTS-XIAP complexes,XIAP [2]; COS-7 cells treated with staurosporine in the presence of caspase inhibitor BOC,"did not inhibit, and in fact slightly increased"
same,nuclear translocation of ARTS,COS-7 cells [3],nuclear translocation of ARTS was blocked
"CC(C)C[C@@H](C=O)NC(=O)[C@H](CC(C)C)NC(=O)[C@H](CC(C)C)NC(=O)OCc1ccccc1 [MG132, reference compound] (Cbz-Leu-Leu-Leu-aldehyde)",ARTS-induced reduction of XIAP levels,"XIAP [1]; cells treated for 2 hours with 20 mM MG132 prior to induction of apoptosis, data not shown",blocked ARTS-induced reduction of XIAP levels
B1,binding result,GST-XIAP fusion protein,no binding
same,binding result,[4],no binding
B2,binding result,GST-XIAP fusion protein,no binding
B3,induction of apoptosis (TUNEL),COS-7 cells [5],did not induce apoptosis
same,binding to GST-XIAP,XIAP [6],Neither ARTSΔC nor H5 were able to bind to XIAP
B4,binding result,[4],no binding
B5,binding to XIAP in co-IP,XIAP [2]; COS-7 cells co-transfected with pcDNA-mycXIAP and AU5-tagged construct,Neither of these mutants bound to XIAP
